# Measurements published in patent US20060211075A1, “Enzyme sensors including environmentally sensitive or fluorescent labels and uses thereof” (The Albert Einstein College of Medicine of Yeshiva …, priority 2005, published 2006).
# Legend:
# [1] = target: phosphorylated peptide 14, Ac-Glu-Glu-Glu-Ile-pTyr-Gly-Glu-Ile-Dab(dapoxyl)-Ala-amide; assay: Src phosphorylation of 8 µM peptide 14 at 8 µM Lck-SH2, fluorescence
# [2] = target: phosphorylated peptide 14, Ac-Glu-Glu-Glu-Ile-pTyr-Gly-Glu-Ile-Dab(dapoxyl)-Ala-amide; assay: Src phosphorylation of 8 µM peptide 14 at 12 µM Lck-SH2, fluorescence
# [3] = target: phosphorylated peptide 14, Ac-Glu-Glu-Glu-Ile-pTyr-Gly-Glu-Ile-Dab(dapoxyl)-Ala-amide; assay: Src phosphorylation of 8 µM peptide 14 at 4 µM Lck-SH2, fluorescence
# [4] = target: phosphorylated peptide 14, Ac-Glu-Glu-Glu-Ile-pTyr-Gly-Glu-Ile-Dab(dapoxyl)-Ala-amide; assay: Src phosphorylation of 8 µM peptide 14 at 26 µM Lck-SH2, fluorescence
# [5] = target: phosphorylated peptide 14, Ac-Glu-Glu-Glu-Ile-pTyr-Gly-Glu-Ile-Dab(dapoxyl)-Ala-amide; assay: Src phosphorylation of 8 µM peptide 14 at 32 µM Lck-SH2, fluorescence
# [6] = target: phosphorylated peptide 14, Ac-Glu-Glu-Glu-Ile-pTyr-Gly-Glu-Ile-Dab(dapoxyl)-Ala-amide; assay: Src phosphorylation of 8 µM peptide 14 at 0.2 µM Lck-SH2, fluorescence
# [7] = target: phosphotyrosine version of peptide 13, Ac-Glu-Glu-Glu-Ile-pTyr-Dap(NBD)-Glu-Ile-Glu-Ala-amide; assay: Src phosphorylation of 16 µM peptide 13 at 4 µM Lck-SH2, fluorescence
# [8] = target: phosphotyrosine version of peptide 13, Ac-Glu-Glu-Glu-Ile-pTyr-Dap(NBD)-Glu-Ile-Glu-Ala-amide; assay: Src phosphorylation of 16 µM peptide 13 at 12 µM Lck-SH2, fluorescence
# [9] = target: phosphotyrosine version of peptide 13, Ac-Glu-Glu-Glu-Ile-pTyr-Dap(NBD)-Glu-Ile-Glu-Ala-amide; assay: Src phosphorylation of 16 µM peptide 13 at 26 µM Lck-SH2, fluorescence
# [10] = target: phosphotyrosine version of peptide 13, Ac-Glu-Glu-Glu-Ile-pTyr-Dap(NBD)-Glu-Ile-Glu-Ala-amide; assay: fluorescence titration: Src-phosphorylated peptide 13 fixed at 16 µM, GST-Lck-SH2 varied, nonlinear regression
# [11] = target: phosphotyrosine version of peptide 13, Ac-Glu-Glu-Glu-Ile-pTyr-Dap(NBD)-Glu-Ile-Glu-Ala-amide; assay: Src phosphorylation of 16 µM peptide 13 at 16 µM Lck-SH2, fluorescence
# [12] = target: phosphorylated peptide 14, Ac-Glu-Glu-Glu-Ile-pTyr-Gly-Glu-Ile-Dab(dapoxyl)-Ala-amide; assay: Src phosphorylation of 8 µM peptide 14 at 20 µM Lck-SH2, fluorescence
# [13] = target: phosphorylated peptide 14, Ac-Glu-Glu-Glu-Ile-pTyr-Gly-Glu-Ile-Dab(dapoxyl)-Ala-amide; assay: Src phosphorylation of 8 µM peptide 14 at 16 µM Lck-SH2, fluorescence
# [14] = target: phosphotyrosine version of peptide 13, Ac-Glu-Glu-Glu-Ile-pTyr-Dap(NBD)-Glu-Ile-Glu-Ala-amide; assay: Src phosphorylation of 16 µM peptide 13 at 0 µM Lck-SH2 (baseline point of the titration)
# [15] = target: phosphotyrosine version of peptide 13, Ac-Glu-Glu-Glu-Ile-pTyr-Dap(NBD)-Glu-Ile-Glu-Ala-amide; assay: Src phosphorylation of 16 µM peptide 13 at 20 µM Lck-SH2, fluorescence
# [16] = target: phosphorylated peptide 14, Ac-Glu-Glu-Glu-Ile-pTyr-Gly-Glu-Ile-Dab(dapoxyl)-Ala-amide; assay: Src phosphorylation of 8 µM peptide 14 at 2 µM Lck-SH2, fluorescence
# [17] = target: phosphotyrosine version of peptide 13, Ac-Glu-Glu-Glu-Ile-pTyr-Dap(NBD)-Glu-Ile-Glu-Ala-amide; assay: Src phosphorylation of 16 µM peptide 13 at 32 µM Lck-SH2, fluorescence
# [18] = target: phosphotyrosine version of peptide 13, Ac-Glu-Glu-Glu-Ile-pTyr-Dap(NBD)-Glu-Ile-Glu-Ala-amide; assay: Src phosphorylation of 16 µM peptide 13 at 8 µM Lck-SH2, fluorescence
# [19] = test system: T1, CC[C@H](C)[C@H](NC(=O)[C@H](CCC(=O)O)NC(=O)[C@H](CNc1ccc([N+](=O)[O-])c2nonc12)NC(=O)[C@H](Cc1ccc(O)cc1)NC(=O)[C@@H](NC(=O)[C@H](CCC(=O)O)NC(=O)[C@H](CCC(=O)O)NC(=O)[C@H](CCC(=O)O)NC(C)=O)[C@@H](C)CC)C(=O)N[C@@H](CCC(=O)O)C(=O)N[C@@H](C)C(N)=O; assay: purified protein, by the assay type; format: biochemical; details: other: Src kinase; Lck-SH2 20 μM; varying peptide; pH 7.5; 30.0 °C
# T1 construct: purchased Invitrogen
# Method: The fluorescence change was monitored as a function of time. Control assays in the absence of Lck-SH2 were also performed.
# The final Src concentration was 30 nM for peptide 13 and 15 nM for peptide 14.
# [20] = target: GST-Lck-SH2 (UniProt P06239); assay: fluorescence change on Src-catalysed phosphorylation in presence of GST-Lck-SH2 (1.25 µM peptide, 5 µM Lck-SH2, 12 nM Src, 1 mM ATP)
# [21] = target: GST-Lck-SH2 (UniProt P06239); assay: fluorescence change on Src-catalysed phosphorylation in presence of GST-Lck-SH2 (1.25 µM peptide, 5 µM Lck-SH2, 12 nM Src, 1 mM ATP); library peptide with -NH(CH2)2SH
# [22] = target: GST-Lck-SH2 (UniProt P06239); assay: fluorescence change on Src-catalysed phosphorylation in presence of GST-Lck-SH2; value in parentheses, amide-capped peptide 14
# [23] = target: GST-Lck-SH2 (UniProt P06239); assay: fluorescence change on Src-catalysed phosphorylation in presence of GST-Lck-SH2; value in parentheses, amide-capped peptide 13
# GST-Lck-SH2, sequence (P06239 127-224): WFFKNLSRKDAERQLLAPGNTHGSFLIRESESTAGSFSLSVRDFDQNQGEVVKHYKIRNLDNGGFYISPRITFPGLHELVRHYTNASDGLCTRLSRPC
substance,measurement,setting,value
GST-Lck-SH2 (from UniProt P06239 127-224),Fluorescence Increase (fold change),[1],4.31 fold
same,Fluorescence Increase (fold change),[2],5.34 fold
same,Fluorescence Increase (fold change),[3],2.32 fold
same,Fluorescence Increase (fold change),[4],7.32 fold
same,Fluorescence Increase (fold change),[5],7.2 fold
same,Fluorescence Increase (fold change),[6],1.07 fold
same,Fluorescence Increase (fold change),[7],1.24 fold
same,Fluorescence Increase (fold change),[8],1.41 fold
same,Fluorescence Increase (fold change),[9],1.61 fold
same,Kd,[10],2.1 µM
same,Fluorescence Increase (fold change),[11],1.52 fold
same,Fluorescence Increase (fold change),[12],6.85 fold
same,Fluorescence Increase (fold change),[13],6.2 fold
same,Fluorescence Increase (fold change),[14],1.07 fold
same,Fluorescence Increase (fold change),[15],1.56 fold
same,Fluorescence Increase (fold change),[16],1.7 fold
same,Fluorescence Increase (fold change),[17],1.59 fold
same,Fluorescence Increase (fold change),[18],1.33 fold
Src (Homo sapiens),Km,[19],32 ± 0.5 µM
same,Vmax,[19],1.4 ± 0.1 µmol/min/mg
Src-phosphorylated library peptide with Dab-5 (dapoxyl on Dab) at P+1 of Ac-Glu-Glu-Glu-Ile-Tyr-Gly-Glu-Ile-Glu-Ala,Fold change in fluorescence intensity,[20],2.4 fold
Src-phosphorylated library peptide with Dab-5 (dapoxyl on Dab) at P+2 of Ac-Glu-Glu-Glu-Ile-Tyr-Gly-Glu-Ile-Glu-Ala,Fold change in fluorescence intensity,[20],1.6 fold
Src-phosphorylated library peptide with Dab-5 (dapoxyl on Dab) at P+3 of Ac-Glu-Glu-Glu-Ile-Tyr-Gly-Glu-Ile-Glu-Ala,Fold change in fluorescence intensity,[20],3.6 fold
Src-phosphorylated library peptide with Dab-5 (dapoxyl on Dab) at P+4 of Ac-Glu-Glu-Glu-Ile-Tyr-Gly-Glu-Ile-Glu-Ala,Fold change in fluorescence intensity,[21],4.1 fold
Src-phosphorylated library peptide with Dab-6 (NBD on Dab) at P+1 of Ac-Glu-Glu-Glu-Ile-Tyr-Gly-Glu-Ile-Glu-Ala,Fold change in fluorescence intensity,[20],1.3 fold
Src-phosphorylated library peptide with Dab-6 (NBD on Dab) at P+2 of Ac-Glu-Glu-Glu-Ile-Tyr-Gly-Glu-Ile-Glu-Ala,Fold change in fluorescence intensity,[20],1.4 fold
Src-phosphorylated library peptide with Dab-6 (NBD on Dab) at P+3 of Ac-Glu-Glu-Glu-Ile-Tyr-Gly-Glu-Ile-Glu-Ala,Fold change in fluorescence intensity,[20],1.9 fold
Src-phosphorylated library peptide with Dab-6 (NBD on Dab) at P+4 of Ac-Glu-Glu-Glu-Ile-Tyr-Gly-Glu-Ile-Glu-Ala,Fold change in fluorescence intensity,[20],1.7 fold
Src-phosphorylated library peptide with Dab-7 (Cascade Yellow on Dab) at P+1 of Ac-Glu-Glu-Glu-Ile-Tyr-Gly-Glu-Ile-Glu-Ala,Fold change in fluorescence intensity,[20],1.5 fold
Src-phosphorylated library peptide with Dab-7 (Cascade Yellow on Dab) at P+2 of Ac-Glu-Glu-Glu-Ile-Tyr-Gly-Glu-Ile-Glu-Ala,Fold change in fluorescence intensity,[20],1.7 fold
Src-phosphorylated library peptide with Dab-7 (Cascade Yellow on Dab) at P+3 of Ac-Glu-Glu-Glu-Ile-Tyr-Gly-Glu-Ile-Glu-Ala,Fold change in fluorescence intensity,[20],2.1 fold
Src-phosphorylated library peptide with Dab-7 (Cascade Yellow on Dab) at P+4 of Ac-Glu-Glu-Glu-Ile-Tyr-Gly-Glu-Ile-Glu-Ala,Fold change in fluorescence intensity,[20],1.6 fold
Src-phosphorylated library peptide with Dap-5 (dapoxyl on Dap) at P+2 of Ac-Glu-Glu-Glu-Ile-Tyr-Gly-Glu-Ile-Glu-Ala,Fold change in fluorescence intensity,[20],2.4 fold
Src-phosphorylated library peptide with Dap-5 (dapoxyl on Dap) at P+3 of Ac-Glu-Glu-Glu-Ile-Tyr-Gly-Glu-Ile-Glu-Ala,Fold change in fluorescence intensity,[20],3.3 fold
Src-phosphorylated library peptide with Dap-5 (dapoxyl on Dap) at P+4 of Ac-Glu-Glu-Glu-Ile-Tyr-Gly-Glu-Ile-Glu-Ala,Fold change in fluorescence intensity,[20],2.3 fold
Src-phosphorylated library peptide with Dap-6 (NBD on Dap) at P+1 of Ac-Glu-Glu-Glu-Ile-Tyr-Gly-Glu-Ile-Glu-Ala,Fold change in fluorescence intensity,[21],1.6 fold
Src-phosphorylated library peptide with Dap-6 (NBD on Dap) at P+3 of Ac-Glu-Glu-Glu-Ile-Tyr-Gly-Glu-Ile-Glu-Ala,Fold change in fluorescence intensity,[20],1.3 fold
Src-phosphorylated library peptide with Dap-6 (NBD on Dap) at P+4 of Ac-Glu-Glu-Glu-Ile-Tyr-Gly-Glu-Ile-Glu-Ala,Fold change in fluorescence intensity,[20],1.3 fold
Src-phosphorylated library peptide with Dap-7 (Cascade Yellow on Dap) at P+1 of Ac-Glu-Glu-Glu-Ile-Tyr-Gly-Glu-Ile-Glu-Ala,Fold change in fluorescence intensity,[20],1.4 fold
Src-phosphorylated library peptide with Dap-7 (Cascade Yellow on Dap) at P+2 of Ac-Glu-Glu-Glu-Ile-Tyr-Gly-Glu-Ile-Glu-Ala,Fold change in fluorescence intensity,[20],1.8 fold
Src-phosphorylated library peptide with Dap-7 (Cascade Yellow on Dap) at P+3 of Ac-Glu-Glu-Glu-Ile-Tyr-Gly-Glu-Ile-Glu-Ala,Fold change in fluorescence intensity,[20],1.6 fold
Src-phosphorylated library peptide with Dap-7 (Cascade Yellow on Dap) at P+4 of Ac-Glu-Glu-Glu-Ile-Tyr-Gly-Glu-Ile-Glu-Ala,Fold change in fluorescence intensity,[20],1.4 fold
"phosphorylated peptide 14, Ac-Glu-Glu-Glu-Ile-pTyr-Gly-Glu-Ile-Dab(dapoxyl)-Ala-amide",Fold change in fluorescence intensity,[22],7.2 fold
"phosphotyrosine version of peptide 13, Ac-Glu-Glu-Glu-Ile-pTyr-Dap(NBD)-Glu-Ile-Glu-Ala-amide",Fold change in fluorescence intensity,[23],1.6 fold
